Patent US20100297726A1 (AMANO ENZYME, published 2010)

T1: mature transglutaminase (Streptomyces mobaraensis strain No. 140226) (Streptomyces mobaraensis, UniProt P81453 77-407)
T1 construct: Natural enzyme from the culture solution; also called mature TGase; M-TGase
T1 sequence: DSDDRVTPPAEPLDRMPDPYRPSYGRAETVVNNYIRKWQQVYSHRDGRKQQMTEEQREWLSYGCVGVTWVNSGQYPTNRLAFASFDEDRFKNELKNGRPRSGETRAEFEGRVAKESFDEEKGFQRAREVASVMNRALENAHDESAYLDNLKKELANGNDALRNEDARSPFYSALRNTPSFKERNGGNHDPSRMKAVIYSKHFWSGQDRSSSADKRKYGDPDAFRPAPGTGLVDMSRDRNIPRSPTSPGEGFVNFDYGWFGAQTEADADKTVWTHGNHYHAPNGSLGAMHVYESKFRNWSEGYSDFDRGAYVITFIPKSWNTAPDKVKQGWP


The binders below were run against T1, mature transglutaminase (Streptomyces …) (assay: gel filtration (Sephacryl S-100), elution patterns with and without SDS).
Protocol: On the other hand, ammonium sulfate was added to the recovered supernatant until the concentration of saturated solution was achieved, and precipitates were recovered. The recovered precipitates were dissolved in 20 mM phosphate buffer solution (KPB; pH 7.2), and then dialyzed against the same buffer solution. Next, ammonium sulfate was added to the dialysate so that 1.7 M ammonium sulfate was obtained, which was subjected to Phenyl-Sepharose 6 Fast Flow equilibrated with 20 mM phosphate buffer solution (KPB; pH 7.2) containing 1.7 M ammonium sulfate, washed with 1.7 M ammonium sulfate, and eluted with 1.0 M ammonium sulfate. Thus, the target stabilized TGase (P-TGase) was eluted in the eluted fraction. The specific activity of the thus obtained P-TGase (u/Abs 280 nm) was 7.9. The elution patterns of gel filtration (Sephacryl S-100) was compared between the case in which SDS (sodium dodecyl sulfate) was added and the case in which SDS was not added.

| Binder | binding result |
| --- | --- |
| DNGAGEETKSYAETYRLTADDVANINALNESAPAA (Recovered from P-TGase of Streptomyces mobaraensis strain No. 140226 after SDS treatment and gel filtration; One of three peptide species found in the P-TGase preparation) [pro-sequence peptide of transglutaminase (1) DNGAGEETKSYAETYRLTADDVANINALNESAPAA] | binds |
| DNGAGEETKSYAETYRLTADDVANINALNESAPAAS (Recovered from P-TGase of Streptomyces mobaraensis strain No. 140226 after SDS treatment and gel filtration) [pro-sequence peptide of transglutaminase (2) DNGAGEETKSYAETYRLTADDVANINALNESAPAAS] | binds |
| DNGAGEETKSYAETYRLTADDVANINALNESAPAASS (Recovered from P-TGase of Streptomyces mobaraensis strain No. 140226 after SDS treatment and gel filtration) [pro-sequence peptide of transglutaminase (3) DNGAGEETKSYAETYRLTADDVANINALNESAPAASS] | binds |
